The values that follow come from US20200147231A1 (NATIONAL CANCER CENTER JAPAN, published 2020).

The target in assay [1] is T1, insoluble fibrin (fibrinogen from human plasma, immobilised on a plate and treated with thrombin) (human, UniProt P02671 36-629; P02679 27-437).
T1 construct: Plasma-derived material; also called fibrin plate; insoluble fibrin plate
T1 sequence 1: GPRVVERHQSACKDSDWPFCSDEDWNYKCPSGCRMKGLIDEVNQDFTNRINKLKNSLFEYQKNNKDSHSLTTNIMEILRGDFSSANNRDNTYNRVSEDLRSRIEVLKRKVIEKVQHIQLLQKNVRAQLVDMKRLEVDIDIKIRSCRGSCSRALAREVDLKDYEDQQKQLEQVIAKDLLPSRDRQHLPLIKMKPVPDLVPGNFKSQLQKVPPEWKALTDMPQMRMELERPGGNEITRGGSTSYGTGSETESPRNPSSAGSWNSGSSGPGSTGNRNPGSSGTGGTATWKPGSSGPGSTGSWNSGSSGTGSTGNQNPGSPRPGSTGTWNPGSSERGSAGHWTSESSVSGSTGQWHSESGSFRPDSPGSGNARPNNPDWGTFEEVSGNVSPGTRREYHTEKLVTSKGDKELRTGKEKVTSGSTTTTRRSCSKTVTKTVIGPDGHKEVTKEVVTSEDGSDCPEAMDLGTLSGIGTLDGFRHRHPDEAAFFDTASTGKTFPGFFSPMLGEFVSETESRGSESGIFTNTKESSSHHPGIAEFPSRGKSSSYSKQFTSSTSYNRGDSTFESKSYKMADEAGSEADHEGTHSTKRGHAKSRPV
T1 sequence 2: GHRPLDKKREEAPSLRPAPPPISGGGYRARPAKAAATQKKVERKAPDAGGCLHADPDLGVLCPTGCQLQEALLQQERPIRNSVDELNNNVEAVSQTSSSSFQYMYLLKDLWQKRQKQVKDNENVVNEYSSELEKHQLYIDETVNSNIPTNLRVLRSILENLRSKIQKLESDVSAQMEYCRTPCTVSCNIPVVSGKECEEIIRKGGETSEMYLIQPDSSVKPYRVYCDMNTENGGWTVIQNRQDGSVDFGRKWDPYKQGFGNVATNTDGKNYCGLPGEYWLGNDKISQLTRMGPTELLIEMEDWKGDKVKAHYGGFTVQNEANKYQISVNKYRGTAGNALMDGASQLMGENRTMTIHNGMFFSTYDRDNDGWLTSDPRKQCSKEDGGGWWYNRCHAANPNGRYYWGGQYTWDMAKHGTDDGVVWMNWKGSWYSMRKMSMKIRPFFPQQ
T1 sequence 3: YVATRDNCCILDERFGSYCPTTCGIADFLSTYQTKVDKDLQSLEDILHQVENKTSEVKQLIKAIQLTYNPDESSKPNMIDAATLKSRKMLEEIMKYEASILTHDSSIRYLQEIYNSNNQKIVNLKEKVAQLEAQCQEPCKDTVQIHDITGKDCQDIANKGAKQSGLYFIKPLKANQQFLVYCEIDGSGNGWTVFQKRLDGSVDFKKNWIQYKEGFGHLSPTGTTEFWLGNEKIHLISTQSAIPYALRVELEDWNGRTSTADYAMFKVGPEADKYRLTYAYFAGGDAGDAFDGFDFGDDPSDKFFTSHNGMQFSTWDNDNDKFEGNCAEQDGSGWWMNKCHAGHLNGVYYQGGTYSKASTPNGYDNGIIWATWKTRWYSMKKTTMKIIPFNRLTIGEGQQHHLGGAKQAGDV
Nature of the assay: ELISA on the human fibrin plate (coated fibrinogen treated with thrombin), HRP secondary antibody, absorbance at 450 nm.
Method: In advance of the ELISA, an antigen-immobilized plate was prepared. Fibrinogen from human plasma (SIGMA) was dissolved in TBS (pH 8.5) to produce a 20 μg/mL fibrinogen solution. The solution was added to a 96-well immunoplate at 50 μL/well and was left to stand at 4° C. overnight to prepare a fibrinogen plate. Thrombin diluted to 0.05 NIH U/mL with a thrombin diluent [7 mM L-cysteine (FUJIFILM Wako Pure Chemical Corporation), 1 mM CaCl₂ (FUJIFILM Wako Pure Chemical Corporation), TBS (pH 8.5)] was added to the fibrinogen plate at 100 μL/well and was incubated at 37° C. for 2 hours to prepare a fibrin plate. The plate on which each antigen was immobilized was washed with 200 μL of PBS-T (PBS, 0.5% (v/v) Tween 20) three times, and 200 μL of a blocking solution [PBS-T, 1% (w/v) BSA] were added to each well, followed by being left to stand at room temperature for 1 hour for blocking. The samples serially diluted with PBS were added to the plate at 50 μL/well and were left to stand at room temperature for 1 hour. The solutions were discarded, and the plate was washed with PBS-T three times. A secondary antibody diluted to 0.3 μg/mL with the blocking solution was added to the plate at 50 μL/well, followed by being left to stand at room temperature for 30 minutes. […]

In assay [2] the target is peptide of the epitope site of 102-10. As to the kind of experiment: SPR (Biacore T200), peptide immobilised on CM5, antibody as analyte, multi cycle kinetics.

B1: antibody obtained from clone 1101 (antibody, V domains shown)
VH: EVQLQQSGTVLARPGASVKMSCKASGFSFTSYWMHWVKQRPGQGLEWIGAIYPGNSDTRNNQKFKGKAKLTAVTSANTAYMELSSLTNEDSAVYYCTRKAHYGNYGFAYWGQGTLVTVSA
VL: DIQMTQSSSYLSVSLGGRVTITCKASDHINNWLAWYQQKPGNAPRLLISGATSLETGVPSRFSGSGSGKDYTLSITSLQTEDVATYYCQQYWSTPLTFGAGTKLELKR
notes: also called antibody 1101
B1: in assay [1], the binding result is “binds”.

B2: antibody obtained from clone 1101 (antibody, V domains shown)
VH: EVQLQQSGTVLARPGASVKMSCKASGFSFTSYWMHWVKQRPGQGLEWIGAIYPGNSDTRNNQKFKGKAKLTAVTSANTAYMELSSLTNEDSAVYYCTRKAHYGNYGFAYWGQGTLVTVSAA
VL: DIQMTQSSSYLSVSLGGRVTITCKASDHINNWLAWYQQKPGNAPRLLISGATSLETGVPSRFSGSGSGKDYTLSITSLQTEDVATYYCQQYWSTPLTFGAGTKLELKRADAAP
In assay [2], B2 yielded a Kd of 66.8 nM, a koff of 0.00325 s⁻¹ and a kon of 93700 M⁻¹ s⁻¹.

B3: antibody obtained from clone 99-5 (antibody, V domains shown)
VH: QIQLVQSGPELKKPGETVKISCKASGYTFTNYGMNWVKQAPGKGLKWMGWINTKIGEPTYAEEFKGRFAFSLETSASTAYLQINNLKNEDTATYFCARLLDYWGQGTTLTVSS
VL: DIVLTQSPASLAVSLGQRATISCRASESVDSYGNSFMHWYQQKPGQPPKLLIYRASNLESGIPARFSGSGSRTDFTLTINPVEADDVATYYCQQSNEDPRTFGGGTKLEIKR
notes: also called antibody 99
On to B3, for which, in assay [1], the binding result is reported as “binds”.

B4: antibody obtained from clone 99-5 (antibody, V domains shown)
VH: QIQLVQSGPELKKPGETVKISCKASGYTFTNYGMNWVKQAPGKGLKWMGWINTKIGEPTYAEEFKGRFAFSLETSASTAYLQINNLKNEDTATYFCARLLDYWGQGTTLTVSSAKTTPPSV
VL: GDIVLTQSPASLAVSLGQRATISCRASESVDSYGNSFMHWYQQKPGQPPKLLIYRASNLESGIPARFSGSGSRTDFTLTINPVEADDVATYYCQQSNEDPRTFGGGTKLEIKRADAAPTVS
In assay [2], B4 had a Kd of 32.6 nM, a koff of 0.000585 s⁻¹ and a kon of 18000 M⁻¹ s⁻¹.
